Measurements reported in patent publication CN107827981A (SHENZHEN GUOCHUANG NANOMETER ANTIBODY TECH CO LTD, dated 2018).

T1: 重组PE免疫毒素 (recombinant Pseudomonas exotoxin A, partial sequence) (Pseudomonas aeruginosa (绿脓杆菌), UniProt P11439 173-638)
T1 construct: also called 重组PE抗原; 重组蛋白PE
T1 sequence: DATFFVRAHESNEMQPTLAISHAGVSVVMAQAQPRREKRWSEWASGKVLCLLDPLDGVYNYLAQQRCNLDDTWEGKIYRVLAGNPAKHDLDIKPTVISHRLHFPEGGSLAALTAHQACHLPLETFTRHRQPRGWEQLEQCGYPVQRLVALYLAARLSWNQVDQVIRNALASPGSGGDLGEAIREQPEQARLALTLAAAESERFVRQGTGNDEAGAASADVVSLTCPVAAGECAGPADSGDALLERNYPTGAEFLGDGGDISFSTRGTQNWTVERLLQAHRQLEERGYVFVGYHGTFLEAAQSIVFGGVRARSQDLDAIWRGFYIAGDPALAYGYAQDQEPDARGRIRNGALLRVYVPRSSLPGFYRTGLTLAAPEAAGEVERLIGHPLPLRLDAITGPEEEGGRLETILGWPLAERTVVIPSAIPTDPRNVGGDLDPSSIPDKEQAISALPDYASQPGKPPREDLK


Target: T1, 重组PE免疫毒素 (recombinant Pseudomonas …)
Assay: SPR, Biacore T100, 1:1 binding fit

Binder	Kd [nM]
纳米抗体VHH-PE 2 (VHH) ESGGGLVQAGGSLRLSGVASRRTFCNYLDAMGWLSLVTGKERELVAHITGNRGDVMYLDSVKAGSTISRVKTNSTVYLQMNSMKPEDTHVYYWAPKATGFFSPKEEEKYNWWGQGTQ	4.85
纳米抗体VHH-PE 1 (VHH) VHH: ESGGGLVQAGGSLRLSCAASGRTFSSTGHTFSSYAMGWFRQTPGKEREFVAAISWSGTSTYYADSVKGRFTISRDNAKNTVYLQMNSLKPEDTAVYYCAARFWDYGLGSSDLKSPREYDYWGQGTQ	12.2
